Assay results published in the supplement of paper PMC9170038.

Test system: MS2 coat protein
Experiment: apparent KD of MS2 coat protein; designed switch direction (-1 OFF switch, 1 ON switch): -1; higher = weaker reporter binding
How it was run: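 Stalled E. coli RNA polymerase transcribed designed RNA switches on Illumina chips, which were then titrated with SNAP-549-labelled MS2 coat protein, doubling from 0.7 or 1.5 nM to 3 µM. Steps lasted from 0.8–1.5 h at the lowest concentration to 10–20 min at the highest. The apparent KD is each design's median over clusters of curve-fitted normalised fluorescence.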

[1] = Eterna round: R95, input ligand: microRNA oligo, concentration not stated
[2] = input ligand: microRNA oligo, concentration not stated

Sequence	apparent KD of MS2 coat protein (input ligand: FMN 200 uM) [nM]	apparent KD of MS2 coat protein (input ligand: none) [nM]	apparent KD of MS2 coat protein [2] [nM]	also measured
UCAUGUAUGUAGGAUAUCGAUGUCCUCGGACAUCGAGAAGGACGUACAUGAGGAUCACCCAUGUAACUUGCAUG [Exclusion 6 - B - 11:c] (puzzle: Exclusion 6)	–	–	–	apparent KD of MS2 coat protein (Eterna round: R95, input ligand: FMN 200 uM): 23 nM; apparent KD of MS2 coat protein [1]: 14 nM; apparent KD of MS2 coat protein (Eterna round: R95, input ligand: none): 23.4 nM
UCCAAGCGGAAGCAAUGAAACAUGAGGAUCACCCAUGUCCCGGUGGUCAUUCACCCAAGCUUUUUGUAGUCAACCUU [Eternabot (L1) Solution 42] (Eterna round: R97, puzzle: Sensor, turn-off variant 1)	249	297	–	–
UCCAGUGAAGGAUAUGCACCAGGCAAUUGUAGGGUACUCAUACAUGAGGAUCACCCAUGUAGAAGGUCGCAGGC [Eternabot (L2) Solution 78] (Eterna round: R97, puzzle: Exclusion 2)	32.4	–	–	–
UCCGGACAUGAGGAUCACCCAUGUUAGGAUAUCUGAGGUGUGCCAGGAUCCUGGGCCCAGAGAAGGAAUAUGGC [Eternabot (L2) Solution 28] (Eterna round: R97, puzzle: Exclusion 1)	21.7	19.8	–	–
UCCGGGUUUGUAGGAUAUAGUCUGCUUUGCAGACUAGAAGGACAUGAGGAUCACCCAUGUUGUGGAAAUUUGGGAUGUUCCUUU [random2] (Eterna round: R96, puzzle: Exclusion NG 1)	176	189	27.4	–
UCCUCACAUGAGGAUCACCCAUGUGAGGAUAUCAUGCUUCGUAGUAAACUACGAAGUGUGAGAAGGCGCAUGGC [Omei Ex1 D16] (Eterna round: R97, puzzle: Exclusion 1)	20.4	16.2	–	–
UCCUGACAUGAGGAUCACCCAUGUGAGGAUAUGUGGAUCGAGUCAAAUCUCGUUCCGUGCAGAAGGCACAGGGC [EX1 A.21] (Eterna round: R97, puzzle: Exclusion 1)	24.9	19	–	–
UCCUGGCGAGGAUAUACAAAGAUUUUUUCGUUUUGUCUCGAACAUGAGGAUCACCCAUGUAGAAGGUGCUGCUG [JR_Ex2_Sub014] (Eterna round: R97, puzzle: Exclusion 2)	50.3	52.2	–	–
UCGACGUCGUCAGGAUAUAGUCUUAAUGUCAUGCUUUUGUUCGUACAUGAGGAUCACCCAUGUGGCUAGAAGGGACUAAAGUUU [JR_ExcNG2_Sub016] (Eterna round: R96, puzzle: Exclusion NG 2)	16.1	26.9	11.7	–
UCGGCGCGAGGAUAUACGGUUGCUUGGUAGGGUCGUGGCGUACAUGAGGAUCACCCAUGUAGAAGGCGCGCCGC [Apr-15 SS2-31] (puzzle: Exclusion 2)	–	–	–	apparent KD of MS2 coat protein [1]: 15.9 nM
UCGGCGCGAGGAUAUACGUUUGCUUUUUUUCGUUUUUGUGUACAUGAGGAUCACCCAUGUAGAAGGCGCGCCGC [Apr-15 SS2-20] (puzzle: Exclusion 2)	–	–	–	apparent KD of MS2 coat protein [1]: 14.6 nM
UCGGCGCGAGGAUAUGCGGUUGCUUGGUAGGGUCGGAGCGUACAUGAGGAUCACCCAUGUAGAAGGCGCGCCGC [Apr-15 SS2-33] (puzzle: Exclusion 2)	–	–	–	apparent KD of MS2 coat protein [1]: 15.5 nM
UCGGCGCUAGGAUAUGCGUCGAAAGACAUGAGGAUCACCCAUGUGGUGCUCCUUAUUAAAGCAGAAGGAGCCCGUA [EX5 A.17] (Eterna round: R97, puzzle: Exclusion 5)	300	152	–	–
UCGUUCCGUGUAGGAUAUUGGCCUCCCUUGGGCCGAGAAGGACAUGAGGAUCACCCAUGUAUGUUAUUAUCGCGCGUGGCGCAU [Design 88] (Eterna round: R96, puzzle: Exclusion NG 1)	126	18.4	13.8	–
UCGUUUCGUGUAGGAUAUUGGCCUUCUCUGGGUCGAGAAGGACAUGAGGAUCACCCAUGUAUGUUAUUAUCACGCGUGGCGCAU [Design 83] (Eterna round: R96, puzzle: Exclusion NG 1)	35.3	28.2	15.8	–
UCUCAACAUGAGGAUCACCCAUGUGAGGAUAUGAUGCAGCAGUGGUCUACGCUGUGCAUCAGAAGGCACAUGUG (puzzle: Exclusion 1)	–	–	–	apparent KD of MS2 coat protein [1]: 119 nM
UCUCAGAUAGGAUAUACGUUGGCGGUAGAUCGGGUUUAAAUACAUGAGGAUCACCCAUGUAGAAGGAUCGAGGG [EX2 C.8] (Eterna round: R97, puzzle: Exclusion 2)	94.4	104	–	–
UCUCGACAUGAGGAUCACCCAUGUCAGGAUAUUGUGUUUGAGGUUUUUUACCUUUUGGCAAGAAGGGAUGUGUG [LRO-Excl1-21] (Eterna round: R96, puzzle: Exclusion 1)	27.5	27.7	19.7	–

Sequence	apparent KD of MS2 coat protein (input ligand: FMN 200 uM) [nM]	apparent KD of MS2 coat protein (input ligand: none) [nM]	apparent KD of MS2 coat protein [2] [nM]	also measured
UCUCGACAUGAGGAUCACCCAUGUCAGGAUAUUGUGUUUGAGGUUUUUUACCUUUUGGCAAGAAGGGAUGUGUG [LRO-Excl1-21] (puzzle: Exclusion 1)	–	–	–	apparent KD of MS2 coat protein [1]: 24.9 nM
UCUCGACAUGAGGAUCACCCAUGUCAGGAUAUUGUGUUUUGGGUUUUUUACCUUUUGGCAAGAAGGGAUGUGUG [LRO-Excl1-20] (puzzle: Exclusion 1)	–	–	–	apparent KD of MS2 coat protein [1]: 20.4 nM
UCUCGCGGGCAAGGAUAUCCCACGCUGUUCUGGCCCGUGUUUGUUACAUGAGGAUCACCCAUGUGGGAGAAGGUGCACCAGGGC [Design 42] (Eterna round: R96, puzzle: Exclusion NG 2)	218	168	96.3	–
UCUCGCGGGCAAGGAUAUCCUACGUUGUUCUGGCCCGUGCAUGUUACAUGAGGAUCACCCAUGUGGGAGAAGGUGCACCAGGGC [Design 38] (Eterna round: R96, puzzle: Exclusion NG 2)	56.9	52.5	30.3	–
UCUGGUCAAGGAUAUACAAUCGUGCUUCGGCACGUAAGAUCACAUGAGGAUCACCCAUGUAGAAGGUGACCAGA [E2/1-C3] (Eterna round: R97, puzzle: Exclusion 2)	449	43.9	–	–
UCUGGUCGAGGAUAUACAUGAGGAUCACCCAUGUGGUCACGUGACUUCGGUCACGAAUGUAGAAGGCGACCAGA [E3/3-A6] (Eterna round: R97, puzzle: Exclusion 3)	26.7	51	–	–
UCUUACUGAGGAUAUACAUAGAUUUACAUGAGGAUCACCCAUGUUCCUCUAAGUAUAUAUGUAGAAGGCAGAAGAU [Mat - Exclusion 5 - JL Mod - D44] (Eterna round: R97, puzzle: Exclusion 5)	329	235	–	–
UCUUAUUGCAAGGAUAUGCAAAUUAUUAUUAAAGCAGAAGGUGCAACAUGAGGAUCACCCAUGUUUCCGGGAAA [JR_E6_Sub040] (puzzle: Exclusion 6)	–	–	–	apparent KD of MS2 coat protein [1]: 25 nM
UCUUAUUGCAAGGAUAUGCUUUUUAUUUCUUUUGCAGAAGGUGCAACAUGAGGAUCACCCAUGUUUCCGGGCAU [JR_E6_Sub035] (Eterna round: R96, puzzle: Exclusion 6)	34.4	21.5	16.4	–
UCUUAUUGCAAGGAUAUGCUUUUUAUUUCUUUUGCAGAAGGUGCAACAUGAGGAUCACCCAUGUUUCCGGGCAU [JR_E6_Sub035] (puzzle: Exclusion 6)	–	–	–	apparent KD of MS2 coat protein [1]: 16.8 nM
UGAAACCUAGGAUAUACAUGAGGAUCACCCAUGUAAUGUAGUAUAGUAUAUGUAAGAUGUAGAAGGAGGAAAGU [LRO-Excl05-27-Smart Aleck] (Eterna round: R97, puzzle: Exclusion 3)	26.3	37.7	–	–
UGAAUAAUAGUAAGGAUAUCAGCCGCGAAAGUGGCUGAGAAGGUACAUGAGGAUCACCCAUGUGAAAUAAGAAU [Mod of Zala 19 - Jieux - Brourd's Mod of Exclusion 4] (Eterna round: R97, puzzle: Brourd's mod of Exclusion 4)	27.1	19.8	–	–
UGACUUCAUAUCACAUGAGGAUCACCCAUGUUAUUCAUCUCGUAGGAUAUCGAGGUUUAUUAUUUCGAGAAGGACGUAUUGUUU [JR_ExcNG3_Sub075] (Eterna round: R96, puzzle: Exclusion NG 3)	68.6	45.5	44.3	–
UGAGGACAUGAGGAUCACCCAUGUAAGGAUAUGCGGAGAGAUUGGAGAGGUCGAGGAGGCAGAAGGUACAGGAC [JR_Exclu1_Sub049] (puzzle: Exclusion 1)	–	–	–	apparent KD of MS2 coat protein [1]: 68 nM
UGAGUGCUGCGAGGAUAUACAUGAGGAUCACCCAUGUAUACCUGUGAGGCUUUGCCUCACAGGUAGUAGAAGGCGCAGUACUCU [Mat - Exclusion NG 2 - Mod of JL - D44] (Eterna round: R96, puzzle: Exclusion NG 2)	13.1	12.8	9.11	–
UGAGUGCUGCGAGGAUAUACAUGAGGAUCACCCAUGUUAUCGUGUGAGGCUUUGCCUCACACGAAGUAGAAGGCGCAGUACUCU [JL ENG2 1.11] (Eterna round: R96, puzzle: Exclusion NG 2)	9.84	14.2	10.2	–
UGAUCUAGCGGAGGAUAUACAUGAGGAUCACCCAUGUAGACUCUAUGACCGUAGUCGUGGAGUGUGUAGAAGGCCGCUAGAUCU [JL ENG2 3.74] (Eterna round: R96, puzzle: Exclusion NG 2)	14.3	12.6	9.24	–
